Reference: patent US20140349405, “RNA-DIRECTED DNA CLEAVAGE AND GENE EDITING BY CAS9 ENZYME FROM NEISSERIA MENINGITIDIS” (WISCONSIN ALUMNI RESEARCH FOUNDATION, published 2014)

B1: Neisseria CRISPR repeat promoter wt (dsDNA)
DNA 1: GTTGTAGCTCCCTTTCTCATTTCGCAGTGCTACAAT
DNA 2: ATTGTAGCACTGCGAAATGAGAAAGGGAGCTACAAC
B2: Neisseria CRISPR repeat promoter mut (dsDNA)
DNA 1: GTTGTAGCTCCCTTTCTCATTTCGCAGTGCCCCAAT
DNA 2: ATTGGGGCACTGCGAAATGAGAAAGGGAGCTACAAC
modifications: [31-32]

Key:
[1] = molecular target: T1, RNA polymerase sigma70 holoenzyme (Escherichia coli, UniProt P0A7Z4;P0A8V2;P0A8T7;P0A800;P00579 …); experiment: in vitro transcription, 168 nt product; 10 mM Mg, 100 mM KCl, 37 C; conditions: tags: Epicentre, sigma-saturated; chain copies: 2,1,1,1,1
[2] = molecular target: T1, RNA polymerase sigma70 holoenzyme; experiment: in vitro transcription, no transcript; conditions: tags: Epicentre, sigma-saturated; chain copies: 2,1,1,1,1

T1 sequence (P0A7Z4 whole entry, chain 1 of 4): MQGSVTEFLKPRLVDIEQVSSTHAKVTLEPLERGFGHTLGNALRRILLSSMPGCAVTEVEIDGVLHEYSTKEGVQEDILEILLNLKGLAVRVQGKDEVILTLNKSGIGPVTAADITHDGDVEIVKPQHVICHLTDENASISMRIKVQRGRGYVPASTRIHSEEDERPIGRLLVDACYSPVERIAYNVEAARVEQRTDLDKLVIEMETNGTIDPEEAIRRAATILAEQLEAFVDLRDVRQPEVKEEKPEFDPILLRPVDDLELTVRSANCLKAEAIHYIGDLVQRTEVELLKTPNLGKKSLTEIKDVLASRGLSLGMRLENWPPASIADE
T1 sequence (P0A8V2 whole entry, chain 2 of 4): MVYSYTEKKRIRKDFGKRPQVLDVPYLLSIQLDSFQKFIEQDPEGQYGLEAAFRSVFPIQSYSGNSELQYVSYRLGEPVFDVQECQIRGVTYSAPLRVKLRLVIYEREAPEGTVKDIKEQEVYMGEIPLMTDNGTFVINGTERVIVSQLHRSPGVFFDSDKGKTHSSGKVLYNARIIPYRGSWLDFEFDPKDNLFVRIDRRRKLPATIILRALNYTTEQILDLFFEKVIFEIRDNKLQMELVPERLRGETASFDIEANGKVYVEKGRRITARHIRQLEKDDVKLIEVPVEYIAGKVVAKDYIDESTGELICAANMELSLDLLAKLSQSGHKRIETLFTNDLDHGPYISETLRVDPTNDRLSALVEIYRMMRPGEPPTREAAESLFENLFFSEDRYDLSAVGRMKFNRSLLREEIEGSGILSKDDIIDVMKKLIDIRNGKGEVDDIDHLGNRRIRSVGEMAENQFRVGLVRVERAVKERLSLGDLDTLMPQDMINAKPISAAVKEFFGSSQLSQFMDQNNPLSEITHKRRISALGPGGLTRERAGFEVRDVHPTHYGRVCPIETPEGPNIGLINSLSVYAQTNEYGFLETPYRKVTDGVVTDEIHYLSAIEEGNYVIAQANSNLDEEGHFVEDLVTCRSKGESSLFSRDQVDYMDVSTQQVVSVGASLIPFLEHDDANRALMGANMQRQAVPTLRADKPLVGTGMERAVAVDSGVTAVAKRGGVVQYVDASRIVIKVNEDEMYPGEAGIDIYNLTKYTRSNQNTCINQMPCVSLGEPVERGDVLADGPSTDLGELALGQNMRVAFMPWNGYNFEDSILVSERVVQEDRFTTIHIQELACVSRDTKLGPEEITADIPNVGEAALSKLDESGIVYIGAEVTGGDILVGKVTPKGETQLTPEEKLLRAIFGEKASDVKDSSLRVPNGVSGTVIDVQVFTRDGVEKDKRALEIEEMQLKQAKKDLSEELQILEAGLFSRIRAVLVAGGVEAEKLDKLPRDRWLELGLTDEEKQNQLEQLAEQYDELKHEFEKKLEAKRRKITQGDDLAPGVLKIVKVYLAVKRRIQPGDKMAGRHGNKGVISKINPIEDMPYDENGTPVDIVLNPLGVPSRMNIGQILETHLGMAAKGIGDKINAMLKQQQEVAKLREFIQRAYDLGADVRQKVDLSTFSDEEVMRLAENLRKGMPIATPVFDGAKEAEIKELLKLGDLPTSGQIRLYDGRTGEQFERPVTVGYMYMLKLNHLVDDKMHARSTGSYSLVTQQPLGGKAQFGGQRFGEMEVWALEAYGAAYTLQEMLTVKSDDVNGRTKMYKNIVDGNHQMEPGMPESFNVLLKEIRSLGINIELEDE
T1 sequence (P0A800 2-91, chain 4 of 4): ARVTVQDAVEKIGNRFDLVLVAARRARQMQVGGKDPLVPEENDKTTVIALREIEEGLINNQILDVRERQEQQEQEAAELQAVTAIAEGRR
T1 sequence (P00579 whole entry, chain 5 of 4): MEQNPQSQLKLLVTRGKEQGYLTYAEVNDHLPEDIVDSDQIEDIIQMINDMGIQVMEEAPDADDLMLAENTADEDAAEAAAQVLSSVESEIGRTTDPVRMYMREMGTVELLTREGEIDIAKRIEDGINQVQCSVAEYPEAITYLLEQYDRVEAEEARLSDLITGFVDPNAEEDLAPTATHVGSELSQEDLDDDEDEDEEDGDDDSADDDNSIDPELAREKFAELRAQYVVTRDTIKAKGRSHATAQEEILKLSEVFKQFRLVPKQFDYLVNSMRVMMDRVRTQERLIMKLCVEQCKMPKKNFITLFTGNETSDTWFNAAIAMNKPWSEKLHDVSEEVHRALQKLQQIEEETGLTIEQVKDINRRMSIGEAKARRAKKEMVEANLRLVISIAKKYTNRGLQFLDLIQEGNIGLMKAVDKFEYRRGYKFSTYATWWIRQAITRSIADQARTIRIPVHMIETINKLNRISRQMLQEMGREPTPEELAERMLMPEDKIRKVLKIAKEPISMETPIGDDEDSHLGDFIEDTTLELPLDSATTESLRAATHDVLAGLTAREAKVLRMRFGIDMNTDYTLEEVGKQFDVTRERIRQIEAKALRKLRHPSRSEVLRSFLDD

| Binder | binding result [1] | binding result [2] |
| --- | --- | --- |
| B1 | binds | – |
| B2 | – | no binding |
